# Test results as given in PMC10385607 (2023).
# Where a chain is given by its changes, count along the chain named.
# T1: Human ALCAM (28–501)-6xhistidine tag (human, UniProt Q13740 28-501)
# T1 chain: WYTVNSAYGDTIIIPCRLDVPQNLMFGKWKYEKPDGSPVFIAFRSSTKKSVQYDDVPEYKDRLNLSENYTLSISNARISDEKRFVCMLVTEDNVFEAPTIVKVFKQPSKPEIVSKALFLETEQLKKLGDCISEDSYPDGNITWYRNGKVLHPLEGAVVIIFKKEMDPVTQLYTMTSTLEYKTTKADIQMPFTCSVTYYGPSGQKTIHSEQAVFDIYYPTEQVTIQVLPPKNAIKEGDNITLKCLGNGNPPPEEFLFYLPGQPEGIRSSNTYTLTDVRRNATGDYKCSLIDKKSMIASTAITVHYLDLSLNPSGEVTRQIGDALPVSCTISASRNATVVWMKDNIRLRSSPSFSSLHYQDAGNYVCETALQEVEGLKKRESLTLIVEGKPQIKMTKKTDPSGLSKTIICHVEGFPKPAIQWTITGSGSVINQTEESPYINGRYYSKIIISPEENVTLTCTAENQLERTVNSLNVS
# B1: scFv IF8 (scFv, V domains shown)
# VH: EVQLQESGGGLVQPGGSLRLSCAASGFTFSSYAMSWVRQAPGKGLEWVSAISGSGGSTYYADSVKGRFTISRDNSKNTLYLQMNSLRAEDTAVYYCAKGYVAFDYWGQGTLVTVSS
# VL: SSELTQDPAVSVALGQTVRITCQGDSLRSYYASWYQQKPGQAPVLVIYGKNNRPSGIPDRFSGSSSGNTASLTITGAQAEDEADYYCNSSPPFSAEVVFGGGTKLTVL
# B2: scFv OPT (scFv, V domains shown)
# VH: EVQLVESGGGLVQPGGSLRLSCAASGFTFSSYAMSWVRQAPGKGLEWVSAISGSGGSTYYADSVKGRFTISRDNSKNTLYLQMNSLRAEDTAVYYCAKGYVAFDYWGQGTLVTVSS
# VL: SSVLTQPPSVSVAPGQTARITCQGDSLRSYYASWYQQKPGQAPVLVVYGKNNRPSGIPERFSGSSSGNTATLTISRVEAGDEADYYCNSSPPFSAEVVFGGGTKLTVL
# B3: scFv V2D7 (scFv, V domains shown)
# VH: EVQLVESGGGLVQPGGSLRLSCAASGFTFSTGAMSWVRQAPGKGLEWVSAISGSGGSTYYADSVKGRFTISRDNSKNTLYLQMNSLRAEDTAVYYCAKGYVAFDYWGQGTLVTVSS
# VL: B2 VL with Y30G
# B4: scFv V20C10NC (scFv, V domains shown)
# VH: EVQLVESGGGLVQPGGSLRLSCAASGFTFSTGAMSWVRQAPGKGLEWVSAISGTGGTTYYADSVKGRFTISRDNSKNTLYLQMNSLRAEDTAVYYCAKGYVAFDYWGQGTLVTVSS
# VL: B2 VL with Y30G, G49P, N51M, N52S
# B5: scFv V200G1 (scFv, V domains shown)
# VH: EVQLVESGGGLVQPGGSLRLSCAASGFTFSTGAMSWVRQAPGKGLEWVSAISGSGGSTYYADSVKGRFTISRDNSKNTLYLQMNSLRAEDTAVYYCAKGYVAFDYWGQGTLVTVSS
# VL: B2 VL with Y30G, N51T, N52G
# Biological target: T1, Human ALCAM (28–501)-6xhistidine tag
# Assay: SPR
row,Binder,koff
1,B1,0.00114 s⁻¹
2,B2,0.0011 s⁻¹
3,B3,0.000127 s⁻¹
4,B4,9.12e-05 s⁻¹

# Biological target: T1, Human ALCAM (28–501)-6xhistidine tag
# Assay: ELISA; competition with CD6-Fc
row,Binder,IC50
1,B5,31.3 nM
2,B2,69.2 nM
3,B4,29.2 nM

# Biological target: T1, Human ALCAM (28–501)-6xhistidine tag
# Assay: SPR
# Remark: another data set of the same source
row,Binder,Kd
1,B5,2.52 nM
2,B2,12.7 nM
3,B3,2.62 nM
4,B4,5.08 nM
